Source: patent US20260258125A1

Legend:
[1] = target: membrane-bound endogenous human CEACAM5 and CEACAM6 on BxPC3 cells; assay: flow cytometry on BxPC3 cells with against without 100 nM soluble CEACAM6
[2] = target: membrane-bound endogenous human CEACAM5 and CEACAM6 on LS 174T cells; assay: flow cytometry on LS174T cells with against without 100 nM soluble CEACAM6
[3] = target: membrane-bound endogenous human CEACAM5 and CEACAM6 on A549 cells; assay: flow cytometry on A549 cells (printed over the panel: CEACAM5-, CEACAM6+), MFI

fold change of EC50 at the presence of 100 nM soluble protein [1]: 4.1 fold
fold change of EC50 at the presence of 100 nM soluble protein [2]: 6.9 fold
EC50 (read off the curve) [3]: 0.1 nM
B1: PR303563 (Tinurilimab) (antibody, human IgG2, kappa, V domains shown)
VH: QVTLRESGPALVKPTQTLTLTCTFSGFSLSTYGIGVGWIRQPPGKALEWLAHIWWNDNKYYSTSLKTRLTISKDTSKNQVVLTMTNMDPVDTATYYCARISLPYFDYWGQGTTLTVSS
VL: DIQLTQSPSFLSASVGDRVTITCKASQNVGTAVAWYQQKPGKAPKLLIYSASNRYTGVPSRFSGSGSGTEFTLTISSLQPEDFATYYCQQYSSYPLTFGGGTKVEIKR
